“Also recorded” adds a separate entry of the source. Blank lines part the entries; values can stand above or below the molecule they belong to. Where no end group is shown, it is not given here.
Columns and labels:
[1] = biological target: EGFR peptide 287-302 (806 peptide epitope) (human); assay: BIAcore, peptide 287-302 immobilised by amine coupling
[2] = biological target: EGFR peptide 287-302 (806 peptide epitope) (human); assay: BIAcore, peptide 287-302 immobilised by thiol coupling
[3] = biological target: EGFR peptide 287-302 (806 peptide epitope) (human); assay: BIAcore, peptide 287-302 immobilised by Pms-Ser coupling
[4] = test system: EGFR fragments displayed on yeast; assay: yeast surface display of EGFR fragments; assay type: binding, human
Description: (§1) Expression of EGFR proteins on the yeast cell surface was performed as previously described (Johns et al., 2004).
Briefly, transformed colonies were grown at 30° C. in minimal media containing yeast nitrogen base, casein hydrolysate, dextrose, and phosphate buffer pH 7.4, on a shaking platform for approximately one day until an OD600 of 5-6 was reached. Yeast cells were then induced for protein display by transferring to minimal media containing galactose, and incubated with shaking at 30° C. for 24 h. Cultures were then stored at 4° C. until analysis. Raw ascites fluid containing the c-myc monoclonal antibody 9E10 was obtained from Covance (Richmond, CA). 1×10^6 yeast cells were washed with ice-cold FACS buffer (PBS containing 1 mg/ml BSA) and incubated with either anti-c-myc ascites (1:50 dilution), or human EGFR monoclonal antibody (10 μg/ml) in a final volume of 50 μl, for 1 hr at 4° C. The cells were then washed with ice cold FACS buffer and incubated with phycoerythrin-labelled anti-mouse IgG (1:25 dilution), in a final volume of 50 μl for 1 h at 4° C., protected from light. After washing the yeast cells with ice-cold FACS buffer, fluorescence data was obtained with a Coulter Epics XL flow cytometer (Beckman-Coulter), and analyzed with WinMDI cytometry software (J. Trotter, Scripps University). […]

DU145 xenografts = assay: established xenograft model; assay type: in vivo, nude mice; settings: day 67; 1 mg i.p.
Text: Xenografts were allowed to establish for 18 days before therapy commenced (3 times a week for 3 weeks on days indicated). At this time the average tumor volume was 90 mm^3 (FIG. 68D).

xenograft U87MG (native) = assay: immunohistochemistry of xenograft sections; design: species or system human
Description: (§2) Xenografts were excised and bisected. One half was fixed in 10% formalin/PBS before being embedded in paraffin. Four micron sections were then cut and stained with haematoxylin and eosin (H&E) for routine histological examination. The other half was embedded in Tissue Tek® OCT compound (Sakura Finetek, Torrance, CA), frozen in liquid nitrogen and stored at −80° C. Thin (5 micron) cryostat sections were cut and fixed in ice-cold acetone for 10 min followed by air drying for a further 10 min. Sections were blocked in protein blocking reagent (Lipshaw Immunon, Pittsburgh U.S.A.) for 10 min and then incubated with biotinylated primary antibody (1 mg/ml), for 30 min at room temperature (RT). All antibodies were biotinylated using the ECL™ protein biotinylation module (Amersham, Baulkham Hills, Australia), as per the manufacturer's instructions. After rinsing with PBS, sections were incubated with a streptavidin horseradish peroxidase complex for a further 30 min (Silenus, Melbourne, Australia). Following a final PBS wash the sections were exposed to 3-amino-9-ethylcarbozole (AEC) substrate (0.1 M acetic acid, 0.1 M sodium acetate, 0.02 M AEC (Sigma Chemical Co., St Louis, MO)) in the presence of hydrogen peroxide for 30 min. Sections were rinsed with water and counterstained with hematoxylin for 5 min and mounted.
(§3) Bound antibody was detected using the Dako Envision™+HRP detection system as per manufacturer's instructions. Sections were finally rinsed with water, counterstained with hematoxylin and mounted.

xenograft A431 = assay: immunohistochemistry of xenograft sections; design: species or system human
Description: as §2, §3

[5] = test system: normal human liver sections; assay: immunohistochemistry with mAb175
Description: as §3
The U87MG cell line only expresses modest levels of the wild-type EGFR (FIG. 66A) and has no detectable EGFR autocrine loop.

EGFR fragments = assay: Western blot of GH/EGFR fragment fusion proteins; assay type: binding, human
Description: The day prior to transfection with these fragments, human 293T embryonic-kidney fibroblasts were seeded at 8×10^5 per well in 6-well tissue culture plates containing 2 ml of media. Cells were transfected with 3-4 μg of plasmid DNA complexed with Lipofectamine™ 2000 (Invitrogen) according to the manufacturer's instructions. […] Parallel membranes were probed overnight with mAb 9B11 (1:5000, Cell Signaling Technology, Danvers, Massachusetts) to detect the c-myc epitope. Membranes were washed in TBST, and incubated in blocking buffer containing horseradish peroxidase-conjugated rabbit anti-mouse IgG (Biorad) at a 1:5000 dilution for 2 h at room temperature. Blots were then washed in TBST, and developed using autoradiographic film following incubation with Western Pico Chemiluminescent Substrate (Pierce, Rockford, Illinois).
as §1

DU145 cells = assay: FACS binding to cell lines; assay type: cell-based, human
Text: Clearly, mAb806 and mAb175 can recognize only a small proportion of the EGFR on cells in the presence of an autocrine stimulation loop.

[6] = biological target: amplified / overexpressed wild-type EGFR (human) (UniProt P00533); assay: IHC glioblastoma, amplified EGFR, no de2-7 EGFR
[7] = biological target: wtEGFR-FLAG on Ba/F3 cells (human) (UniProt P00533); assay: FACS median fluorescence, Ba/F3 cells, reference M2 anti-FLAG
de2-7 EGFR (human) = de2-7 EGFR (human) (UniProt P00533); assay: IHC glioblastoma, amplified EGFR with de2-7 EGFR
[8] = biological target: amplified / overexpressed wild-type EGFR (human) (UniProt P00533); assay: Scatchard analysis, 125I-labelled 528, A431 cells
[9] = biological target: C271A/C283A-EGFR on Ba/F3 cells (human) (UniProt P00533); assay: FACS median fluorescence, Ba/F3 cells, average for four independent clones, reference M2
EGFR of A431 cells = EGFR of A431 cells (Homo sapiens, UniProt P00533); assay: ELISA of 806 reactivity in lysate of AG1478 treated cells; assay type: cell-based; settings: increasing amounts of AG1478 (0.5 μM and 5 μM)
A431 xenografts = assay: combination therapy with AG1478, preventative model; assay type: in vivo, mice; settings: 0.1 mg mAb806; 400 μg AG1478
Description: AG1478 (4-(3-Chloroanilino)-6,7-dimethoxyquinazoline) is a potent and selective inhibitor of the EGFR kinase versus HER2-neu and platelet-derived growth factor receptor kinase (Calbiochem Cat. No. 658552). […] The results are illustrated in FIG. 12. […] 400 μg AG1478 was administered at 0, 2, 4, 7, 9, and 11 days post xenograft.

[10] = biological target: T1, denatured soluble domain of the EGFR (sEGFR) (Homo sapiens, UniProt P00533); assay: competition ELISA; assay type: binding; settings: after unlabeled blocking antibody
T1 construct: sEGFR is the recombinant extracellular domain (amino acids 1-621) of the wild-type EGFR; made in house; host or cells: CHO cells
Description: Briefly, the denatured soluble domain of the EGFR (sEGFR) was coated on to ELISA plates. The unlabeled 124 or 1133 antibodies were then added across the plate in increasing concentrations.

[11] = biological target: T2, EGFR peptide 287-302 (806 peptide epitope) (human, not fully specified (bridges); also: oxidized form in the crystals); assay: BIAcore, immobilised peptide, 200 nM antibody
T2 construct: Immobilised by amine, thiol or Pms-Ser coupling; oxidized form in the crystals
T2 peptide: CGADSYEMEEDGVRKC

xenograft U87MGΔEGFR = assay: immunohistochemistry of xenograft sections; design: species or system human
[12] = test system: established U87MG.de2-7 xenografts; assay: in vivo 806 therapy study; design: species or system BALB/c nude mice; settings: 6 x 1 mg IP, versus PBS
Description: (§4) To establish xenografts, mice were injected subcutaneously into the right and left inguinal mammary line with 1×10^6 A431 […] cells or 1×10^6 U87MG.de2-7 glioma cells in 100 μl of PBS. Tumor volume (TV) was calculated by the formula [(length×width^2)/2] where length was the longest axis and width the measurement at right angles to length. […] Therapy was administered on days 6, 8, 11, 13, 15 and 18 for A431, and days 4, 6, 8, 11, 13 and 15 for the U87MG.de2-7 cell lines respectively. Mean±SEM tumor volumes until termination of the experiments due to ethical considerations of tumor burden are presented in FIG. 91 for the A431 xenograft until day 25, and in FIG. 92 for U87MG.de2-7 xenografts until day 31.

[13] = test system: established A431 xenografts; assay: in vivo 806 therapy study; design: species or system BALB/c nude mice; settings: 6 x 1 mg IP, versus PBS
Description: as §4

Kd [1]: 154 nM | Kd [2]: 143 nM | Kd [3]: 35 nM
Molecule: mAb175 (antibody)

Molecule: mAb175: murine monoclonal antibody, SEQ ID NO:129 and SEQ ID NO:134
binding to EGFR fragments [4]: recognized the yeast fragment 273-621; also recorded: not to fragments 1-176, 1-294, 294-543, or 475-621; also recorded: binds to the denatured fragment of the 273-621 | mean tumor volume (DU145 xenografts): 815 mm^3 | immunohistochemical staining (xenograft U87MG (native)): does not stain | immunohistochemical staining (xenograft A431): stains | staining [5]: does not bind | reactivity with EGFR fragments (EGFR fragments): reacted with both the 274-501 and 282-501 EGFR fragments; also recorded: did not detect fragments commencing at amino acid 290 or 298; also recorded: a 274-501 EGFR fragment with the mAb806 epitope deleted (Δ287-302) was also negative for mAb175 binding | FACS binding (DU145 cells): bind to DU145 cells

percent of immunoreactive cells [6]: > 75% | ratio of antibody binding mAb 528/M2 [7]: 1.37 | percent of immunoreactive cells (de2-7 EGFR (human)): > 75% | binding sites per cell (sites per cell) [8]: 2e+06 | ratio of antibody binding mAb 528/M2 [9]: 1.08
Molecule: 528 antibody

mAb806 binding to EGFR in cell lysate (EGFR of A431 cells): significantly increased
Molecule: COc1cc2ncnc(Nc3cccc(Cl)c3)c2cc1OC [AG1478, 4-(3-Chloroanilino)-6,7-dimethoxyquinazoline, reference compound]
tumor volume (A431 xenografts): significant reduction of tumor volume

Binding of biotin-labeled 806 [10]: None | Binding to mAb806 peptide (RU), maximal [11]: 800 RU
B1: mAb1133 (antibody, mouse IgG2a, V domains shown)
VH: DVQLQGSGPSLVKPSQSLSLTCTVTGYSITSDYAWNWIRQFPGNKLEWMGYISYSGNTRYNPSLRSRISITRDTSKNQFFLQLNSVTTEDTATYYCATAGRGFPYWGQGTLVTVSA
VL: DILMTQSPSSMSVSLGDTVNITCHSSQDINSNIGWLQQKPGKSFKGLIYHGTNLDDGVPSRFSGSGSGADYSLTISSLESEDFADYYCVQYGQFPWTFGGGTKLEIKR
notes: Mouse IgG2a; variable domains only
immunohistochemical staining (xenograft A431): pos. (predominantly | immunohistochemical staining (xenograft U87MGΔEGFR): pos.

B2: hu806: humanized (veneered) 806 antibody, SEQ ID NO:42 and SEQ ID NO:47 (antibody, V domains shown)
VH: MDWTWRILFLVAAATGVHSQVQLQESGPGLVKPSQTLSLTCTVSGYSISSDFAWNWIRQPPGKGLEWMGYISYSGNTRYQPSLKSRITISRDTSKNQFFLKLNSVTAADTATYYCVTAGRGFPYWGQGTLVTVSS
VL: MDWTWRILFLVAAATGVHSDIQMTQSPSSMSVSVGDRVTITCHSSQDINSNIGWLQQKPGKSFKGLIYHGTNLDDGVPSRFSGSGSGTDYTLTISSLQPEDFATYYCVQYAQFPWTFGGGTKLEIKR
xenograft growth [12]: significant reduction in tumor growth by day 20 | xenograft growth [13]: marked reduction in A431 xenograft growth

— US20240117073A1, “METHODS OF TREATING NEOPLASTIC ASTROCYTOMA” (Ludwig Institute for Cancer Research Ltd., priority 2009, published 2024)
